# Measured values reported in patent US20250066745A1, “MUTANTS AND USE THEREOF” (BGI SHENZHEN, priority 2021, published 2025).
# Assays:
# Format in all cases: biochemical
# Design in all cases: key to Activity of mutant relative to wild-type Gaussia luciferase without the signal peptide: ratio of mutant luminescence intensity to wild-type Gaussia luciferase
# [1] = Luminescence activity assay of purified Gaussia luciferase mutants on coelenterazine; details: Substrate CTZ (Table 16)
# How it was run: (§1)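 Readout: luminescence intensity, as ratio to signal-peptide-free wild-type enzyme. Enzyme 1 μg/mL, substrate 100 μM stock, 10 μL + 90 μL; buffer 50 mM Tris-HCl pH 8.0, 100 mM NaCl, 0.1% Tween-20.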
# [2] = Luminescence activity assay of purified Gaussia luciferase mutants on coelenterazine derivative ZS2; details: Substrate ZS2 (Table 16)
# How it was run: as §1
# [3] = Luminescence activity assay of purified Gaussia luciferase mutants on fluoro-coelenterazine; details: Substrate f-CTZ (Table 16)
# Experimental: In this Example, the protein concentration was determined with a BCA quantitative kit (Thermo Scientific™ Pierce™ BCA Protein Assay Kit) accurately. The purified luciferase obtained in Example 5 was diluted with diluent (50 mM Tris-HCl, pH 8.0, 100 mM NaCl, 0.1% (v/v) Tween-20) to 1 μg/mL. The diluted luciferase, taken for 10 μL, was moved into a black 96-well plate, then added with 90 μL of the substrates coelenterazine, fluoro-coelenterazine or coelenterazine derivative ZS2 (purchased from Biolab) which was diluted into 100 μM with the same diluent, and the luminescence intensity of the plate was read with a self-luminescence module of a microplate reader. The mutation site of the mutant, the measured luminescence intensity, the ratio of luminescence intensities of the advantageous mutants to the wild-type Gaussia luciferase without the signal peptide having the sequence shown in SEQ ID NO: 3 are shown in Table 15. The results of catalytic activity assay of the advantageous mutants relative to the wild-type Gaussia luciferase without the signal peptide having the sequence shown in SEQ ID NO: 3 on substrate coelenterazine are shown in FIG. 6. […] The results of catalytic activity assay of the advantageous mutants relative to the wild-type Gaussia luciferase without the signal peptide having the sequence shown in SEQ ID NO: 3 on substrate fluoro-coelenterazine are shown in FIG. 7.
# The new mutant library constructed in Example 7 was screened and tested for substrate specificity. Expression and purification schemes were the same as that in Example 5, and the activity assay scheme was the same as that in Example 6. The respective catalytic activities of combinatorial mutants on coelenterazine, fluoro-coelenterazine or coelenterazine derivative ZS2, and coelenterazine derivative ZS26 (purchased from BIOLAB) were assayed, and comparisons among the substrate specificities of the combinatorial mutants were based on the ratios of catalytic activities on two corresponding substrates.
Molecule,Activity of mutant relative to wild-type Gaussia luciferase without the signal peptide [1],Activity of mutant relative to wild-type Gaussia luciferase without the signal peptide [2],Activity of mutant relative to wild-type Gaussia luciferase without the signal peptide [3]
"F26V N27Y V29N A30D V31D D32L S33R A36R T37W L40Y K180R: Gaussia luciferase mutant (protein, SIGNAL (1)..(17), Gaussia luciferase mutant) MGVKVLFALICIAVAEAKPTENNEDVYINDDLRNFRWTDYDADRGKLPGKKLPLEVLKEMEANARKAGCTRGCLICLSHIKCTPKMKKFIPGRCHTYEGDKESAQGGIGEAIVDIPEIPGFKDLEPMEQFIAQVDLCVDCTTGCLKGLANVQCSDLLKKWLPQRCATFASKIQGQVDKIRGAGGD",0.072,0.063,0.065
"F26R N27D V29E A30G V31I A32D S33N A36N T37A L40R: Gaussia luciferase mutant (protein, SIGNAL (1)..(17), Gaussia luciferase mutant) MGVKVLFALICIAVAEAKPTENNEDRDIEGIDNNFNATDRDADRGKLPGKKLPLEVLKEMEANARKAGCTRGCLICLSHIKCTPKMKKFIPGRCHTYEGDKESAQGGIGEAIVDIPEIPGFKDLEPMEQFIAQVDLCVDCTTGCLKGLANVQCSDLLKKWLPQRCATFASKIQGQVDKIKGAGGD",0.053,0.044,0.067
"F26Y N27Y V29A A30G S33V A36V T37S L40G: Gaussia luciferase mutant (protein, SIGNAL (1)..(17), Gaussia luciferase mutant) MGVKVLFALICIAVAEAKPTENNEDYYIAGVAVNFVSTDGDADRGKLPGKKLPLEVLKEMEANARKAGCTRGCLICLSHIKCTPKMKKFIPGRCHTYEGDKESAQGGIGEAIVDIPEIPGFKDLEPMEQFIAQVDLCVDCTTGCLKGLANVQCSDLLKKWLPQRCATFASKIQGQVDKIKGAGGD",0.219,0.177,0.192
"A30G V31I A32V S33G A36N T37D L40R: Gaussia luciferase mutant (protein, SIGNAL (1)..(17), Gaussia luciferase mutant) MGVKVLFALICIAVAEAKPTENNEDFNIVGIVGNFNDTDRDADRGKLPGKKLPLEVLKEMEANARKAGCTRGCLICLSHIKCTPKMKKFIPGRCHTYEGDKESAQGGIGEAIVDIPEIPGFKDLEPMEQFIAQVDLCVDCTTGCLKGLANVQCSDLLKKWLPQRCATFASKIQGQVDKIKGAGGD",0.138,0.116,0.615
"F26T N27D V29P A30G V31I A32G S33I A36I T37L L40I: Gaussia luciferase mutant (protein, SIGNAL (1)..(17), Gaussia luciferase mutant) MGVKVLFALICIAVAEAKPTENNEDTDIPGIGINFILTDIDADRGKLPGKKLPLEVLKEMEANARKAGCTRGCLICLSHIKCTPKMKKFIPGRCHTYEGDKESAQGGIGEAIVDIPEIPGFKDLEPMEQFIAQVDLCVDCTTGCLKGLANVQCSDLLKKWLPQRCATFASKIQGQVDKIKGAGGD",0.231,0.224,0.210
F26R V29E A30G V31L A36D T37E L40S K159: Gaussia luciferase mutant (protein) MGVKVLFALICIAVAEAKPTENNEDRNIEGLASNFDETDSDADRGKLPGKKLPLEVLKEMEANARKAGCTRGCLICLSHIKCTPKMKKFIPGRCHTYEGDKESAQGGIGEAIVDIPEIPGFKDLEPMEQFIAQVDLCVDCTTGCLKGLANVQCSDLLKKWLPQRCATFASKIQGQVDKIKGAGGD,0.000,0.001,0.009
"F26S N27Y V29C A32G S33E A36Q T37G L40T: Gaussia luciferase mutant (protein, SIGNAL (1)..(17), Gaussia luciferase mutant) MGVKVLFALICIAVAEAKPTENNEDSYICAVGENFQGTDTDADRGKLPGKKLPLEVLKEMEANARKAGCTRGCLICLSHIKCTPKMKKFIPGRCHTYEGDKESAQGGIGEAIVDIPEIPGFKDLEPMEQFIAQVDLCVDCTTGCLKGLANVQCSDLLKKWLPQRCATFASKIQGQVDKIKGAGGD",0.119,0.126,0.143
"F26R N27Y V29E A30G A32D S33R A36G T37M L40P: Gaussia luciferase mutant (protein, SIGNAL (1)..(17), Gaussia luciferase mutant) MGVKVLFALICIAVAEAKPTENNEDRYIEGVDRNFGMTDPDADRGKLPGKKLPLEVLKEMEANARKAGCTRGCLICLSHIKCTPKMKKFIPGRCHTYEGDKESAQGGIGEAIVDIPEIPGFKDLEPMEQFIAQVDLCVDCTTGCLKGLANVQCSDLLKKWLPQRCATFASKIQGQVDKIKGAGGD",0.152,0.147,0.172
"A17V H79K P84A E102D S103T E110P L124M: Gaussia luciferase mutant (protein, SIGNAL (1)..(17), Gaussia luciferase mutant) MGVKVLFALICIAVAEVKPTENNEDFNIVAVASNFATTDLDADRGKLPGKKLPLEVLKEMEANARKAGCTRGCLICLSKIKCTAKMKKFIPGRCHTYEGDKDTAQGGIGPAIVDIPEIPGFKDMEPMEQFIAQVDLCVDCTTGCLKGLANVQCSDLLKKWLPQRCATFASKIQGQVDKIKGAGGD",0.198,0.082,0.763
"H79K P84K E102K S103I V138E: Gaussia luciferase mutant (protein, SIGNAL (1)..(17), Gaussia luciferase mutant) MGVKVLFALICIAVAEAKPTENNEDFNIVAVASNFATTDLDADRGKLPGKKLPLEVLKEMEANARKAGCTRGCLICLSKIKCTKKMKKFIPGRCHTYEGDKKIAQGGIGEAIVDIPEIPGFKDLEPMEQFIAQVDLCEDCTTGCLKGLANVQCSDLLKKWLPQRCATFASKIQGQVDKIKGAGGD",0.750,0.452,0.479
"H79K P84A E102S S103I A104G E110P L124M: Gaussia luciferase mutant (protein, SIGNAL (1)..(17), Gaussia luciferase mutant) MGVKVLFALICIAVAEAKPTENNEDFNIVAVASNFATTDLDADRGKLPGKKLPLEVLKEMEANARKAGCTRGCLICLSKIKCTAKMKKFIPGRCHTYEGDKSIGQGGIGPAIVDIPEIPGFKDMEPMEQFIAQVDLCVDCTTGCLKGLANVQCSDLLKKWLPQRCATFASKIQGQVDKIKGAGGD",0.000,0.001,0.007
